# From paper PMC7387707, “An (R)-Selective Transaminase From Thermomyces stellatus: Stabilizing the Tetrameric Form” (Frontiers in Bioengineering and Biotechnology, 2020)
# B1: (R)-selective transaminase from Aspergillus terreus (AtRTA), wild type (enzyme)
# chain: MASMDKVFAGYAARQAILESTETTNPFAKGIAWVEGELVPLAEARIPLLDQGFMHSDLTYDVPSVWDGRFFRLDDHITRLEASCTKLRLRLPLPRDQVKQILVEMVAKSGIRDAFVELIVTRGLKGVRGTRPEDIVNNLYMFVQPYVWVMEPDMQRVGGSAVVARTVRRVPPGAIDPTVKNLQWGDLVRGMFEAADRGATYPFLTDGDAHLTEGSGFNIVLVKDGVLYTPDRGVLQGVTRKSVINAAEAFGIEVRVEFVPVELAYRCDEIFMCTTAGGIMPITTLDGMPVNGGQIGPITKKIWDGYWAMHYDAAYSFEIDYNERN
# notes: the forward primer holds the ATG; Same vector as TsRTA, whose His-tag is C-terminal; also called omega transaminase from Aspergillus terreus; source: E. coli BL21 STAR (DE3), purified (IMAC)
# What was measured:
# TsRTA [1] = biological target: T1, TsRTA (Microascus stellatus, UniProt Z9EHZ8S8K6); assay: X-ray structure, […] Å; type: binding; settings: covalent (imine with K178); active site
# T1 construct: codon-optimised synthetic gene in pCH93b (pET22b(+)-derived, TEV site added), E. coli BL21 STAR (DE3), Ni-IMAC, C-terminal His-tag; structure residues 1-319 seen, 320-334 plus tag disordered
# T1 sequence (Z9EHZ8S8K6 10-343): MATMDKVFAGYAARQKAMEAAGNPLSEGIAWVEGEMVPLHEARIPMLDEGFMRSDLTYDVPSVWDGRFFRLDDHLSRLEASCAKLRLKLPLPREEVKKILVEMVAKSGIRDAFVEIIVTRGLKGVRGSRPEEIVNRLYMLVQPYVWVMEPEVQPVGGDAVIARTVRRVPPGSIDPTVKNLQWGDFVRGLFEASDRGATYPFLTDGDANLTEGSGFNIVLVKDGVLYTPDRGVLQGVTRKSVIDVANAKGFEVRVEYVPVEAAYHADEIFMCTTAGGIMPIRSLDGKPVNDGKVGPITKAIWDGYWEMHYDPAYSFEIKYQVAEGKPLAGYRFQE
# AtRTA = biological target: T2, AtRTA (Aspergillus terreus, UniProt Q0C8G1); assay: acetophenone formation, plate reader; substrate-inhibition fit; type: biochemical; settings: 30 °C, pH 8
# T2 construct: gene ATEG_10023; synthetic gene (Johnson Matthey) in pCH93b (pET22b(+)-derived, TEV site added), E. coli BL21 STAR (DE3), Ni-IMAC
# Description: (§1) acetophenone formation, plate reader; substrate-inhibition fit on AtRTA
# TsRTA [2] = biological target: T1, TsRTA; assay: as above; type: biochemical; settings: 30 °C, pH 8
# Description: (§2) acetophenone formation, plate reader; substrate-inhibition fit on TsRTA
# TsRTA [3] = biological target: T3, TsRTA (Microascus stellatus, UniProt Z9EHZ8S8K6, G205C); assay: as above; type: biochemical; settings: 10 mM pyruvate, 1% DMSO, 30 °C, pH 8
# T3 construct: codon-optimised synthetic gene in pCH93b (pET22b(+)-derived, TEV site added), E. coli BL21 STAR (DE3), Ni-IMAC, C-terminal His-tag; structure residues 1-319 seen, 320-334 plus tag disordered
# T3 sequence (Z9EHZ8S8K6 10-343 G205C): T1 sequence (Z9EHZ8S8K6 10-343)
# Description: as §2
# [4] = biological target: (R)-selective transaminase from Thermomyces stellatus (TsRTA), wild type (Thermomyces stellatus); assay: SEC; Superdex 200 10/300 GL; 50 mM potassium phosphate, 100 mM NaCl, 0.1 mM PLP, pH 8; ca 2 mg/mL protein; injected directly after preparation or after incubation (ambient temperature; or 10 mM β-mercaptoethanol at 4°C for 2 days, dialysis, overnight aeration); shares of tetramer, dimer and monomer; 0-1,200 mM NaCl had no effect on the tetramer
# C[C@@H](N)c1ccccc1 [5] = assay: acetophenone formation, plate reader; substrate-inhibition fit; type: biochemical, Aspergillus terreus; settings: 10 mM pyruvate, 1% DMSO, 30 °C, pH 8
# Description: as §1
# CC(=O)C(=O)O [6] = assay: as above; type: biochemical, Aspergillus terreus; settings: 2.5 mM RMBA, 0.25% DMSO, 30 °C, pH 8
# Description: as §1
# Q0C8G1 = settings: SEC
# [7] = biological target: AtRTA_G207C (Aspergillus terreus) (UniProt Q0C8G1)
# [8] = biological target: AtRTA_G207C (Aspergillus terreus) (UniProt Q0C8G1); assay: SEC
# C[C@@H](N)c1ccccc1 [9] = assay: acetophenone formation, plate reader; substrate-inhibition fit; type: biochemical, Microascus stellatus; settings: 10 mM pyruvate, 1% DMSO, 30 °C, pH 8
# Description: as §2
# CC(=O)C(=O)O [10] = assay: as above; type: biochemical, Microascus stellatus; settings: 2.5 mM RMBA, 0.25% DMSO, 30 °C, pH 8
# Description: as §2
# C[C@@H](N)c1ccccc1 [11] = assay: purified protein; settings: 10 mM pyruvate, 1% DMSO, 30 °C, pH 8
# CC(=O)C(=O)O [12] = assay: purified protein; settings: 2.5 mM RMBA, 0.25% DMSO, 30 °C, pH 8
# [13] = SEC; Superdex 200 10/300 GL; 50 mM potassium phosphate, 100 mM NaCl, 0.1 mM PLP, pH 8; ca 2 mg/mL protein; injected directly after preparation or after incubation (ambient temperature; or 10 mM β-mercaptoethanol at 4°C for 2 days, dialysis, overnight aeration); shares of tetramer, dimer and …
# [14] = biological target: TsRTA_G205C (Thermomyces stellatus); assay: SEC; Superdex 200 10/300 GL; 50 mM potassium phosphate, 100 mM NaCl, 0.1 mM PLP, pH 8; ca 2 mg/mL protein; injected directly after preparation or after incubation (ambient temperature; or 10 mM β-mercaptoethanol at 4°C for 2 days, dialysis, overnight aeration); shares of tetramer, dimer and monomer; 0-1,200 mM NaCl had no effect on the tetramer
# [15] = biological target: the molecule itself; assay: as above
molecule,measurement,setting,value
Cc1ncc(COP(=O)(O)O)c(C=O)c1O [PLP],"X-ray structure, 2.2 Å",TsRTA [1],"The active site pocket houses a single PLP molecule, covalently bound to each TsRTA chain"
CC(=O)C(=O)O [Pyruvate],Ki,"AtRTA; 2.5 mM RMBA, 0.25% DMSO",52 ± 4 mM
same,Ki,"TsRTA [2]; 2.5 mM RMBA, 0.25% DMSO",39 ± 5 mM
C[C@@H](N)c1ccccc1 [RMBA],Ki,"AtRTA; 10 mM pyruvate, 1% DMSO",19 ± 1 mM
same,Ki,"TsRTA [2]; 10 mM pyruvate, 1% DMSO",15 ± 1 mM
same,Ki,TsRTA [3],20 ± 2 mM
"(R)-selective transaminase from Thermomyces stellatus (TsRTA), wild type (enzyme)",percent dimer,[4],10%
same,percent tetramer,[4],90%
same,stoichiometry N,[4],4
AtRTA (Aspergillus terreus NIH2624),Km,C[C@@H](N)c1ccccc1 [5],170 ± 10 µM
same,kcat,C[C@@H](N)c1ccccc1 [5],2.24 ± 0.04 s⁻¹
same,kcat/Km,C[C@@H](N)c1ccccc1 [5],13300 ± 500 M⁻¹ s⁻¹
AtRTA (Aspergillus terreus NIH2624; G207C),Km,C[C@@H](N)c1ccccc1 [5],300 ± 20 µM
same,kcat,C[C@@H](N)c1ccccc1 [5],1.96 ± 0.05 s⁻¹
same,kcat/Km,C[C@@H](N)c1ccccc1 [5],6400 ± 300 M⁻¹ s⁻¹
same,Km,CC(=O)C(=O)O [6],190 ± 10 µM
same,kcat,CC(=O)C(=O)O [6],1.71 ± 0.03 s⁻¹
same,kcat/Km,CC(=O)C(=O)O [6],9200 ± 500 M⁻¹ s⁻¹
AtRTA_G207C,percent tetramer (sample with a lower proportion of tetramer used for the thermostability assay),Q0C8G1,AtRTA_G207C: 55% tetramer
AtRTA_G207C (from UniProt Q0C8G1 1-325) (enzyme),increase in enzyme activity after β-mercaptoethanol pre-treatment,[7],65%
same,"percent dimer (after β-mercaptoethanol, dialysis and aeration)",[8],5%
same,percent dimer (immediately following purification),[8],19%
same,percent dimer and tetramer (after β-mercaptoethanol pre-treatment),[8],94%
same,percent dimer and tetramer (before β-mercaptoethanol pre-treatment),[8],57%
same,"percent monomer (after β-mercaptoethanol, dialysis and aeration)",[8],6%
same,percent monomer (immediately following purification),[8],52%
same,"percent tetramer (after β-mercaptoethanol, dialysis and aeration)",[8],89%
same,percent tetramer (immediately following purification),[8],28%
same,stoichiometry N,[8],4
TsRTA (Microascus stellatus),Km,C[C@@H](N)c1ccccc1 [9],130 ± 10 µM
same,kcat,C[C@@H](N)c1ccccc1 [9],1.82 ± 0.03 s⁻¹
same,kcat/Km,C[C@@H](N)c1ccccc1 [9],13800 ± 600 M⁻¹ s⁻¹
same,Km,CC(=O)C(=O)O [10],570 ± 30 µM
same,kcat,CC(=O)C(=O)O [10],2.21 ± 0.04 s⁻¹
same,kcat/Km,CC(=O)C(=O)O [10],3900 ± 100 M⁻¹ s⁻¹
TsRTA (Microascus stellatus; G205C),Km,C[C@@H](N)c1ccccc1 [11],120 ± 10 µM
same,kcat,C[C@@H](N)c1ccccc1 [11],1.35 ± 0.03 s⁻¹
same,kcat/Km,C[C@@H](N)c1ccccc1 [11],11000 ± 600 M⁻¹ s⁻¹
same,Km,CC(=O)C(=O)O [12],420 ± 10 µM
same,kcat,CC(=O)C(=O)O [12],1.33 ± 0.02 s⁻¹
same,kcat/Km,CC(=O)C(=O)O [12],3200 ± 100 M⁻¹ s⁻¹
TsRTA_G205C,percent tetramer (sample with a lower proportion of tetramer used for the thermostability assay),[13],TsRTA_G205C: 75% tetramer
TsRTA_G205C (enzyme),"percent dimer (after β-mercaptoethanol, dialysis and aeration)",[14],11%
same,percent dimer (immediately following purification),[14],42%
same,percent monomer (immediately following purification),[14],2%
same,"percent tetramer (after β-mercaptoethanol, dialysis and aeration)",[14],89%
same,percent tetramer (immediately following purification),[14],55%
same,stoichiometry N,[14],4
B1,stoichiometry N,[15],4
